From US20230012273A1 (Boehringer Ingelheim, published 2023)
Positions count from the first letter of the chain named.

Tests used:
[1] = biological target: T1, cynomolgus SIRPβ1 (XP_005568598) extracellular domain + His-tag (cynomolgus monkey); experiment: SPR
T1 construct: SPR analyte; also called Cyno SIRPβ1 XP_005568598; cynoSIRPβ1; not shown: His-tag
T1 chain: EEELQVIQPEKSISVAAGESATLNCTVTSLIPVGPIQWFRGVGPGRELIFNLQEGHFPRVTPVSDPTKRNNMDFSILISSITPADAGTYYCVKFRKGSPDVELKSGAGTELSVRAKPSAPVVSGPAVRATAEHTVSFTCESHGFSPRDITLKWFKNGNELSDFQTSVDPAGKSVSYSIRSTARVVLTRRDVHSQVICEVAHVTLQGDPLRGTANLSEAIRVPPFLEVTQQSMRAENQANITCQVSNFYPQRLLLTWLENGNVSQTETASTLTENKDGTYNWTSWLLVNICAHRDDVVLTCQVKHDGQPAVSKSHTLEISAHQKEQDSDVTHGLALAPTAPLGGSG
Procedure: (§1) The binding affinity of anti-SIRPα antibodies to the various SIRPα analytes is determined by surface plasmon resonance (SPR) using a ProteOn XPR36 (Bio-Rad). The running buffer for this experiment and all dilutions (except where stated) are done in 1×HBS-EP+. […] The sensorchip is deactivated with 1M ethanolamine HCl for 420 sec at a flowrate of 10 μl/min.
(§2) The analyte is injected over the captured antibody for 300 sec at a flowrate of 30 μl/min. The dissociation is done for 600 sec. Two-fold serial dilutions of each SIRP protein (Extracellular Domain+His-Tag) are injected as analyte with the highest concentrations indicated in table 36 below.

[2] = biological target: T2, cynomolgus SIRPα (EGM_02252) extracellular domain + His-tag (cynomolgus monkey); experiment: SPR
T2 construct: SPR analyte; also called CySIRPα EGM_02252; cynoSIRPα; not shown: His-tag
T2 chain: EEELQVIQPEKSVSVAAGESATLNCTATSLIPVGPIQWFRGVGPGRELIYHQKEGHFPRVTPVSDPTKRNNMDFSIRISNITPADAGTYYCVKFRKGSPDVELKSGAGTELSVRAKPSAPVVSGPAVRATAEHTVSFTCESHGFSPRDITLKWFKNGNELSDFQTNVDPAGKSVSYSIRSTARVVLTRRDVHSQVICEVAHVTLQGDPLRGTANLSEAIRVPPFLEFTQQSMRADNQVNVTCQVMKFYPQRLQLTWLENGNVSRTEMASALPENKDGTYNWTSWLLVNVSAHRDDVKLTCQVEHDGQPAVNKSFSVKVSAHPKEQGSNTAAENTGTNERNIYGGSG
Procedure: as §1, §2

[3] = biological target: T3, cynomolgus SIRPγ (XP_005568591) extracellular domain + His-tag (cynomolgus monkey, UniProt Q9P1W8 29-359 (human entry)); experiment: SPR
T3 construct: SPR analyte; also called Cyno SIRPγ XP_005568591; cynoSIRPγ; not shown: His-tag
T3 chain: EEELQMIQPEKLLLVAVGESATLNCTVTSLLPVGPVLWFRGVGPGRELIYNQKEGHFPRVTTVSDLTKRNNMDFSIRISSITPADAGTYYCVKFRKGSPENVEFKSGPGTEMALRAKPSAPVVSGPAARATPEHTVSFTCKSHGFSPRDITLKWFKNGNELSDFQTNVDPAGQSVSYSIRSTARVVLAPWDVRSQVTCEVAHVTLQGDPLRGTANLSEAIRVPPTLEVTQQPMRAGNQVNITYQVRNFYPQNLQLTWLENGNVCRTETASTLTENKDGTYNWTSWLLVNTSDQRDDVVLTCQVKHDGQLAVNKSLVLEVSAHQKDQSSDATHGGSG
Procedure: as §1, §2

[4] = biological target: T4, cynomolgus SIRPβ1v3 (XP_005568593) extracellular domain + His-tag (cynomolgus monkey); experiment: SPR, antibody captured, ECD-His analyte
T4 construct: SPR analyte; also called Cyno SIRPβ1v3 XP_005568593; cynoSIRPβ1v3; not shown: His-tag
T4 chain: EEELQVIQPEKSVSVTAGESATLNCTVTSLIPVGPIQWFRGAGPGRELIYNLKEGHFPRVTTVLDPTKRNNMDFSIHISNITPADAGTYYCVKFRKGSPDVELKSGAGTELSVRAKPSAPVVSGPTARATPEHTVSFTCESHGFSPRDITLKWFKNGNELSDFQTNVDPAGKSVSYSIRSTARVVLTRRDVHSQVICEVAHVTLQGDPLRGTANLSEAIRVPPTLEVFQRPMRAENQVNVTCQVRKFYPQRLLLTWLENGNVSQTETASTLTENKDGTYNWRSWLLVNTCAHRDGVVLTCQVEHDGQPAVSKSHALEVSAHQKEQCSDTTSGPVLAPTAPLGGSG
Procedure: as §1, §2

[5] = biological target: T5, Human SIRPαV2 (CAA71403.1), Extracellular Domain + His-Tag (human, UniProt P78324 31-373); experiment: SPR, antibody captured on Protein A/G, ECD-His analyte, 1:1 fit
T5 construct: also called huSIRPαV2; hSIRPαV2; not shown: His-Tag
Procedure: (§3) The binding kinetics of anti-SIRPα antibodies to various SIRPα analytes are determined by surface plasmon resonance (SPR) using a Biacore 8K+(Cytiva). 1×HBS-EP+(Cytiva) is used as running buffer and for all the dilutions unless stated otherwise. The Series S CM5 sensorchip is activated with a 1:1 mixture of 0.1 M NHS (N-hydroxysuccinimide) and 0.4 M EDC (1-Ethyl-3-(3-dimethylaminopropyl) carbodiimide hydrochloride) for 420 seconds at a flow rate of 10 μl/min and immobilized with Protein A/G (Thermo Scientific, 10 μg/ml in 10 mM acetate pH 4.5) for 420 seconds at a flowrate of 10 μl/min resulting in approximately 3000 RU of Protein A/G on the surface. The sensorchip is then deactivated with 1 M ethanolamine HCl pH 8.5 for 420 seconds at a flowrate of 10 μl/min.
(§4) Antibodies (approximately 1 ug/ml) are captured on the Protein A/G surface for 60 seconds at a flowrate of 10 μl/min resulting in capture levels of approximately 240 RU. Dilutions of each SIRP protein (Extracellular Domain+His-Tag, with the concentrations as indicated) are injected as analytes over the captured antibody for 300 seconds of association at a flowrate of 30 μl/min, followed by a dissociation for 600 seconds.
(§5) The above procedures are used to measure binding properties of antibodies of the present disclosure. For each analyte used, the highest concentration was as indicated in Example 3 (see Table 36).

[6] = biological target: T6, Human SIRPαV1 (NP_542970.1), Extracellular Domain + His-Tag (human, UniProt P78324 31-373); experiment: as above
T6 construct: also called huSIRPαV1; hSIRPαV1; not shown: His-Tag
Procedure: as §3, §4, §5

[7] = biological target: T7, human SIRPαV2 extracellular domain + His-tag (CAA71403.1) (human, UniProt P78324 31-373); experiment: SPR, Ab captured, ECD-His analyte
T7 construct: also called hSIRPαV2; HuSIRPαV2
Procedure: as §1, §2

[8] = biological target: T8, human SIRPαV1 extracellular domain + His-tag (NP_542970.1) (human, UniProt P78324 31-373); experiment: SPR, Ab captured, ECD-His analyte
T8 construct: also called hSIRPαV1; HuSIRPαV1
Procedure: as §1, §2

[9] = biological target: T9, human SIRPγ extracellular domain + His-tag (NP_061026.2) (human, UniProt Q9P1W8 29-360); experiment: SPR, Ab captured, ECD-His analyte
T9 construct: also called hSIRPγ; HuSIRPγ
Procedure: as §1, §2

T8 sequence (P78324 other isoform, or with tags, fused parts or gaps): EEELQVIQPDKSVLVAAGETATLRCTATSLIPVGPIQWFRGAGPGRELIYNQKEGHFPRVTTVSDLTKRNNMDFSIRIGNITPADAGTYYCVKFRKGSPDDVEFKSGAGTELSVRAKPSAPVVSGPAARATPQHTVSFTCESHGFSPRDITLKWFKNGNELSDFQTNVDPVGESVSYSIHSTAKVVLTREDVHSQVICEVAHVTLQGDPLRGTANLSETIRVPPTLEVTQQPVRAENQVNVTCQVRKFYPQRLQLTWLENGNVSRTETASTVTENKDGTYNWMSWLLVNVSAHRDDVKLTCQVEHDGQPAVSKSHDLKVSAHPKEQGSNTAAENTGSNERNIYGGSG
T9 sequence (Q9P1W8 29-360): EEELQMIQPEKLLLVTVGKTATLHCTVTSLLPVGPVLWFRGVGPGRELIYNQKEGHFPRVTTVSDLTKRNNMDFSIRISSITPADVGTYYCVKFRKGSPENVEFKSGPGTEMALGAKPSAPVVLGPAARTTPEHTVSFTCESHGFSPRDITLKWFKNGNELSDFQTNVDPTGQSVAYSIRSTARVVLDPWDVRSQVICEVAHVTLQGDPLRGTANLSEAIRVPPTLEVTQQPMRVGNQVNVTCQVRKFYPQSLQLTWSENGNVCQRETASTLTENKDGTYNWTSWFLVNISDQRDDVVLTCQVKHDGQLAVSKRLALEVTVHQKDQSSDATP
T7 sequence (P78324 other isoform, or with tags, fused parts or gaps): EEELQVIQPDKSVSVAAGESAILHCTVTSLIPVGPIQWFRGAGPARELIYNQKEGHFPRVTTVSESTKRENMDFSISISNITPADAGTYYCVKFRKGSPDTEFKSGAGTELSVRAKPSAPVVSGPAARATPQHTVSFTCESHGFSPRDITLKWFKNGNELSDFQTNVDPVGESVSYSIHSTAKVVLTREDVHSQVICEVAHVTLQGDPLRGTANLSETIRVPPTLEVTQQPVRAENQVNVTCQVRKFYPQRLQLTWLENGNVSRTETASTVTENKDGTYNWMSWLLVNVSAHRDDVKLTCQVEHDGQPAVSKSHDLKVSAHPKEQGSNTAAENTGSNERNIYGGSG

B1: Antibody E1 (antibody, human IgG1, kappa, L234A L235A, V domains shown)
VH: QVQLQESGPGLVRPSETLSLTCTVSGGSIRNYYWSWIRQPPGKGLEWIGFIYYNGRTFYNPSLKSRVTISLDMSINQFSLKMTSVTAADTAVYYCARVRAYSGIGLDGTDVWGQGTTVTVSS
VL: DIVMTQSPLSLPVTPGEPASISCKSSQSLLYSNGYAYLDWYLQRPGQSPQLLIYQGSNRASGVPDRFSGSGSGTDFTLKISRVEAEDVGVFYCMQALQTPLTFGGGTKVEIKR
binding result [1]: no binding (tested: 1000 nM) | binding result [2]: no binding (tested: 1000 nM) | binding result [3]: no binding (tested: 1000 nM) | Kd [4]: 10.8 nM

B2: Antibody E2 (antibody, human IgG1, kappa, L234A L235A, V domains shown)
VH: B1 VH
VL: B1 VL with Q55L, F91Y
binding result [1]: no binding (tested: 1000 nM) | binding result [2]: no binding (tested: 1000 nM) | binding result [3]: no binding (tested: 1000 nM) | Kd [4]: 12.4 nM

B3: Antibody E3 (antibody, human IgG1, kappa, L234A L235A, V domains shown)
VH: B1 VH with I75K
VL: B1 VL
binding result [1]: no binding (tested: 1000 nM) | binding result [2]: no binding (tested: 1000 nM) | binding result [3]: no binding (tested: 1000 nM) | Kd [4]: 10.7 nM

B4: Antibody E5 (antibody, human IgG1, kappa, L234A L235A, V domains shown)
VH: B1 VH with M73K, I75K
VL: B1 VL
binding result [1]: no binding (tested: 1000 nM) | binding result [2]: no binding (tested: 1000 nM) | binding result [3]: no binding (tested: 1000 nM) | Kd [4]: 22.6 nM

B5: Antibody E6 (antibody, human IgG1, kappa, L234A L235A, V domains shown)
VH: B1 VH with M73K, I75K
VL: B1 VL with Q55L, F91Y
binding result [1]: no binding (tested: 1000 nM) | binding result [2]: no binding (tested: 1000 nM) | binding result [3]: no binding (tested: 1000 nM) | Kd [4]: 23.9 nM

B6: Antibody E7 (antibody, human IgG1, kappa, L234A L235A, V domains shown)
VH: B1 VH with M73T, I75K
VL: B1 VL
binding result [1]: no binding (tested: 1000 nM) | binding result [2]: no binding (tested: 1000 nM) | binding result [3]: no binding (tested: 1000 nM) | Kd [4]: 13.1 nM

B7: Antibody E8 (antibody, human IgG1, kappa, L234A L235A, V domains shown)
VH: B1 VH with I48M, Y53D, I75M
VL: B1 VL
binding result [1]: no binding (tested: 1000 nM) | binding result [2]: no binding (tested: 1000 nM) | binding result [3]: no binding (tested: 1000 nM) | Kd [4]: 10.8 nM

B8: Antibody E (antibody, human IgG1, kappa, L234A L235A)
heavy: not shown
light: DIVMTQSPLSLPVTPGEPASISCKSSQSLLYSNGYNYLDWYLQRPGQSPQLLIYLGSNRASGVPDRFSGSGSGTDFTLKISRVEAEDVGVFYCMQALQTPLTFGGGTKVEIKRTVAAPSVFIFPPSDEQLKSGTASVVCLLNNFYPREAKVQWKVDNALQSGNSQESVTEQDSKDSTYSLSSTLTLSKADYEKHKVYACEVTHQGLSSPVTKSFNRGEC
Kd [5]: 0.33 nM | Kd [6]: 0.43 nM

B9: Antibody E1 (antibody, human IgG1, kappa, L234A L235A, V domains shown)
VH: B1 VH
VL: B1 VL
Kd [7]: 0.63 nM | Kd [8]: 0.723 nM | binding result [9]: no binding (tested: 1000 nM)

B10: Antibody E3 (antibody, human IgG1, kappa, L234A L235A, V domains shown)
VH: B1 VH with I75K
VL: B1 VL
Kd [7]: 0.775 nM | Kd [8]: 0.964 nM | binding result [9]: no binding (tested: 1000 nM)

B11: Antibody E4 (antibody, human IgG1, kappa, L234A L235A, V domains shown)
VH: B1 VH with I75K
VL: B1 VL with Q55L, F91Y
Kd [7]: 0.824 nM | Kd [8]: 0.988 nM | binding result [9]: no binding (tested: 1000 nM)

B12: Antibody E10 (antibody, human IgG1, kappa, L234A L235A, V domains shown)
VH: B1 VH with M73T, I75K
VL: B1 VL with Q55L, F91Y
Kd [7]: 1.2 nM | Kd [8]: 1.23 nM | binding result [9]: no binding (tested: 1000 nM)

B13: Antibody E11 (antibody, human IgG1, kappa, L234A L235A, V domains shown)
VH: B1 VH with I48M, Y53D, I75M
VL: B1 VL with Q55L, F91Y
Kd [7]: 0.568 nM | Kd [8]: 1.41 nM | binding result [9]: no binding (tested: 1000 nM)

B14: Antibody E16 (antibody, human IgG1, kappa, L234A L235A, V domains shown)
VH: B1 VH with M73T, I75K
VL: B1 VL with G34A, A36N, Q55L, F91Y
Kd [7]: 1.93 nM | Kd [8]: 2.15 nM | binding result [9]: no binding (tested: 1000 nM)
